Earlier results, collected in paper PMC4160827.

Target: HIF-1α CODD (Homo sapiens) (UniProt Q16665)

Kd: 14 µM
Substance: PHD2 (from UniProt Q9GZT9)
